The source of these data is patent publication US20250262210A1 (TRUSTEES OF COLUMBIA UNIVERSITY IN THE CITY OF NEW YORK, published 2025).

The experiment has as its target T1, ZCCHC6 (human, UniProt Q5VYS8 1-1495, limits assumed).
T1 sequence (looked up): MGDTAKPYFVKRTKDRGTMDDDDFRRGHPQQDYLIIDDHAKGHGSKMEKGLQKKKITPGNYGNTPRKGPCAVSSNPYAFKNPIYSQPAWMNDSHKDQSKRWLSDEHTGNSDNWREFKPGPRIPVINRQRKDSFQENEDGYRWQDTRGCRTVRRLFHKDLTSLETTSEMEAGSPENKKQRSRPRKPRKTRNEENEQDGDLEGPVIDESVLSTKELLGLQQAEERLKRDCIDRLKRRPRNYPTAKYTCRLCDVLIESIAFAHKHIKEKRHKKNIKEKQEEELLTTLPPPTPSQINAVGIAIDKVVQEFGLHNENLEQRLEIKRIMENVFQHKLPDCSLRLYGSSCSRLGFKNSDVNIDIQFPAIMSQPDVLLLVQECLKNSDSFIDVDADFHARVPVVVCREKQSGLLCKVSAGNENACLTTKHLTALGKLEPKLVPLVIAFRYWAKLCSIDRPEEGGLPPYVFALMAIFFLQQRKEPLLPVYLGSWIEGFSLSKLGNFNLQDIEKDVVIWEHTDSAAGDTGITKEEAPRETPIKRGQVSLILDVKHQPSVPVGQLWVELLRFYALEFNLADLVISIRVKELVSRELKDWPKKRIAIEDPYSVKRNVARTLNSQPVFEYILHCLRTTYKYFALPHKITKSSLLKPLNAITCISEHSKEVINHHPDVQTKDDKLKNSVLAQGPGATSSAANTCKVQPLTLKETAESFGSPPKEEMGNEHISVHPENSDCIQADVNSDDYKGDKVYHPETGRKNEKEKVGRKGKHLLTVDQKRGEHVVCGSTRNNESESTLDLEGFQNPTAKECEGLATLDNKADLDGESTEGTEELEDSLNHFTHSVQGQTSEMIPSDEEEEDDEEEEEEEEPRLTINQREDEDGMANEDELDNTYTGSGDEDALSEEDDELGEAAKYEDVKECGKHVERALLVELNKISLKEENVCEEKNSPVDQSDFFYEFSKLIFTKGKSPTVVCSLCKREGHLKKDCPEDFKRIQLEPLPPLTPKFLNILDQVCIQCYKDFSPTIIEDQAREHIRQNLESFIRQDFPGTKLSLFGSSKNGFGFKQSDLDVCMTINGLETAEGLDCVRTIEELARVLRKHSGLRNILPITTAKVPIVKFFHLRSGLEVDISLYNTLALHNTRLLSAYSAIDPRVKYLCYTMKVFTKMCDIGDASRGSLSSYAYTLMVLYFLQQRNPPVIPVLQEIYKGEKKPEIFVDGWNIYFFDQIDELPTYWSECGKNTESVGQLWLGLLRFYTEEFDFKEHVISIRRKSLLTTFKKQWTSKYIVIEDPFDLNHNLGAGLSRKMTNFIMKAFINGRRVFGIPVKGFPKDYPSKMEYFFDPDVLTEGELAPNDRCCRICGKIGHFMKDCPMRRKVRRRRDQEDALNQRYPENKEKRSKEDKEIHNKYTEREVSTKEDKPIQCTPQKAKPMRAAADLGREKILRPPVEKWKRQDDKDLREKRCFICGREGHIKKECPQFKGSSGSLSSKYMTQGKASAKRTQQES
Briefly: IP/MS, LZTR1 wild type-FLAG, U87. In short, it runs like this:
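Gel slices were reduced with 5 mM DTT, alkylated with 11 mM IAA and digested overnight at 37° C. with trypsin. Peptides were analysed on an Orbitrap Fusion Tribrid by LC-MS/MS.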

B1: LZTR1-FLAG (other, human, UniProt Q8N653 1-840, looked up)
chain: MAGPGSTGGQIGAAALAGGARSKVAPSVDFDHSCSDSVEYLTLNFGPFETVHRWRRLPPCDEFVGARRSKHTVVAYKDAIYVFGGDNGKTMLNDLLRFDVKDCSWCRAFTTGTPPAPRYHHSAVVYGSSMFVFGGYTGDIYSNSNLKNKNDLFEYKFATGQWTEWKIEGRLPVARSAHGATVYSDKLWIFAGYDGNARLNDMWTIGLQDRELTCWEEVAQSGEIPPSCCNFPVAVCRDKMFVFSGQSGAKITNNLFQFEFKDKTWTRIPTEHLLRGSPPPPQRRYGHTMVAFDRHLYVFGGAADNTLPNELHCYDVDFQTWEVVQPSSDSEVGGAEVPERACASEEVPTLTYEERVGFKKSRDVFGLDFGTTSAKQPTQPASELPSGRLFHAAAVISDAMYIFGGTVDNNIRSGEMYRFQFSCYPKCTLHEDYGRLWESRQFCDVEFVLGEKEECVQGHVAIVTARSRWLRRKITQARERLAQKLEQEAAPVPREAPGVAAGGARPPLLHVAIREAEARPFEVLMQFLYTDKIKYPRKGHVEDVLLIMDVYKLALSFQLCRLEQLCRQYIEASVDLQNVLVVCESAARLQLSQLKEHCLNFVVKESHFNQVIMMKEFERLSSPLIVEIVRRKQQPPPRTPLDQPVDIGTSLIQDMKAYLEGAGAEFCDITLLLDGHPRPAHKAILAARSSYFEAMFRSFMPEDGQVNISIGEMVPSRQAFESMLRYIYYGEVNMPPEDSLYLFAAPYYYGFYNNRLQAYCKQNLEMNVTVQNVLQILEAADKTQALDMKRHCLHIIVHQFTKVSKLPTLRSLSQQLLLDIIDSLASHISDKQCAELGADI
notes: Expressed in HEK 293T, HeLa or U87 cells; used as cell lysate; also called LZTR1 wild type-FLAG; LZTR1 WT; not shown: FLAG tag at the C-terminus
For B1, the binding result is given as “binds”.
